Measurements as given in the DeepSol protein solubility set.

Assay: soluble on expression in E. coli; label from the status in PepcDB or PDB records

Sequence	soluble on expression in E. coli
MSLMHTRYFTPSAQWIVQQLWPETLRFAKIEYLYPFKLRLSGVQIASEPTIELQQMDLWLNPYGLLEQQLEIDSVLIDGANLAHGLPNFTLPESVHLNQLALHNIDWADQGIIARGVSLQIKQPVWDSPQQQLPYGKIQLAADQITIDGEAFNQVLVDANYQAQDSTVYGFSFNWRNSPISGQAEQYPQGWSLINVTLSRLNLNLDEWRHHSLWQTIAPSIYHINSLDLLNSQLTLNGVAWENLNLSVEDYDLRHSLWQQQQAYLSLNADSAQWLATQWVEPSAELTLTPQGIELDGHSQVWQGDVQVKGHITETSLNLAQLTITGVKWIAEQPQDLLPFSQPLPAWQNLQIEHLDINNLQMIQTVNRPFWQASGLNADGKNLQWVKESQWGFWQGQLSVTANSASYAGVLSTQGVLNMRSEQGVWQLTRAFLPLERGYVEAHAKWDLTSLSAPWQLSLDADSLPIGPLQSWFKLPFGLEALADISLTAQGIAGDRTMLAHSLDGQLQLNLRQGLLSLRSDNTLIIQPFELDDLAVSADRGRITITPTPLRGPNLNAQLGGSTDLLEPEQGQWQLTIQQAWADQCLGLSWDFQQAELVSQDCRSAPEGHHHHHH	soluble
MSLVVEQVKPNTGQEVQQIGQLQATKVKLPSTTKVALTKETQYLRNQVIASPVALFEIPADRGQMTLTITSEISDSVFYPHVMIVDAQGQVVESYEEVTFEYRKPRLHLGNRLVAELDFYPPQGYKSLFVLVYTKQQDLKGVTYVAHPARIDAEARGNYLPEVKDIPVPHTLTGTIELDVSGPSFLSFVRSEDRQTTTSTDAAKTQIQVQPDTQTYYFSSIERAVQANDLPKALSLLDEAKALGIEGAQEVFVKAVNARKEGHHHHHH	soluble
MPKNTKKSQGNKKLEMTNKQFDDLLKEMGGLPEGMNLDPELLAVLRQATNAEFNKVAKEKYGDVPEGSDDDEEQQTSEQNKEQQQSSSSKST	not soluble
MAQMTMVQAINDALKTELKNDQDVLIFGEDVGVNGGVFRVTEGLQKEFGEDRVFDTPLAESGIGGLAMGLAVEGFRPVMEVQFLGFVFEVFDAIAGQIARTRFRSGGTKTAPVTIRGPFGGGVHTPELHADNLEGILAQSPGLKVVIPSGPYDAKGLLISSIRSNDPVVYLEHMKLYRSFREEVPEEEYTIDIGKANVKKEGNDISIITYGAMVQESMKAAEELEKDGYSVEVIDLRTVQPIDVDTIVASVEKTGRAVVVQEAQRQAGVGAAVVAELSERAILSLEAPIGRVAAADTIYPFTQAENVWLPNKNDIIEKAKETLEF	not soluble
MSLLSGDETLTVYLARVLSCPELFRVSTPEEARRIAEKILSGEIEPPLEFFGLRRDAVNEVLAVTDGPAGENVAPVGLRVRGDSIVVNLYPGSRTYENFVRTEELTACIVPDPIRFLKALSKELAIETVGDGTKVAEGTRAYLELEAKEIHEGKPLTAELQVVGWGLLHPRPRALVRGESALLEALVELTRIHLDEDHVDACKRALEVVKRTIWSEEYQWAVEKVERELRGKEDGPDHQDTSPRIRRATGEGHHHHHH	soluble
MTYTSLKSPENQDYIYDLTIAHLYGNLMNTYGDNGNILMLKYVAEKLGARVTVDIVSINDTFEQDDYDIVFFGGGQDYEQSIVAKDLPSKKAALADYIANNKVVLAICGGFQLLGQYYVQANGVKIDGLGIMGHYTLNQHQNRFIGDIKIHNDEFNETYYGFENHQGRTFLSGDEKPLGRVVYGNGNNKEDQTEGVHYKNVYGSYFHGPILSRNVNLAYRLVTTALKKKYGSAISLPSYDDILKQEITEEYADLKSKASFNKV	not soluble
MSLQTFVIVGHVIPNNDMSPTLNKGDRVIVNKIKVTFNQLNNGDIITYRRGNEIYTSRIIAKPGQSMAFRQGQLYRDDRPVDASYAKNRKIKDFSLRNFKELDGDIIPPNNFVVLNDHDNNQHDSRQFGLIDKKDIIGNISLRYYPFSKWTIQFKSEGHHHHHH	soluble
MAVYLDFENHIKEIQNEIELALIRGDEDAKEILEKRLDKEVKSIYSNLTDFQKLQLARHPDRPYAMDYIDLILKDKYEVFGDRHYNDDKAIVCFVGKIDNVPVVVIGEEKGRGTKNKLLRNFGMPNPCGYR	not soluble
MVTKTTLASATSGLLLLAVVAMSGCTPRPQGPGPAAEKFFAALAIGDTASAAQLSDNPNEAREALNAAWAGLQAAHLDAQVLSAKYAEDTGTVAYRFSWHLPKDRIWTYDGQLKMARDEGRWHVRWTTSGLHPKLGEHQTFALRADPPRRASVNEVGGTDVLVPGYLYHYSLDAGQAGRELFGTAHAVVGALHPFDDTLNDPQLLAEQASSSTQPLDLVTLHADDSNRVAAAIGQLPGVVITPQAELLPTDKHFAPAVLNDVKKAVVDELDGKAGWRVVSVNQNGVDVSVLHEVAPSPASSVSITLDRVVQNAAQHAVNTRGGKAMIVVIKPSTGEILAIAQNAGADADGPVATTGLYPPGSTFKMITAGAAVERDLATPETLLGCPGEIDIGHRTIPNYGGFDLGVVPMSRAFASSCNTTFAELSSRLPPRGLTQAARRYGIGLDYQVDGITTVTGSVPPTVDLAERTEDGFGQGKVLASPFGMALVAATVAAGKTPVPQLIAGRPTAVEGDATPISQKMIDALRPMMRLVVTNGTAKEIAGCGEVFGKTGEAEFPGGSHSWFAGYRGDLAFASLIVGGGSSEYAVRMTKVMFESLPPGYLA	not soluble
MEPLLSLKSVSKSYDDLNILDDIDIDIESGYFYTLLGPSGCGKTTILKLIAGFEYPDSGEVIYQNKPIGNLPPNKRKVNTVFQDYALFPHLNVYDNIAFGLKLKKLSKTEIDQKVTEALKLVKLSGYEKRNINEMSGGQKQRVAIARAIVNEPEILLLDESLSALDLKLRTEMQYELRELQSRLGITFIFVTHDQEEALALSDFLFVLKDGKIQQFGTPTDIYDEPVNRFVADFIGESNIVEGRMVRDYVVNIYGQDFECVDMGIPENKKVEVVIRPEDISLIKAEEGLFKATVDSMLFRGVHYEICCIDNKGYEWVIQTTKKAEVGSEVGLYFDPEAIHIMVPGETEEEFDKRIESYEEVDNA	not soluble
MGRSHHHHHHGSLVPRGSEQGSNVNHLIKVTDQSITEGYDDSDGIIKAHDAENLIYDVTFEVDDKVKSGDTMTVNIDKNTVPSDLTDSFAIPKIKDNSGEIIATGTYDNTNKQITYTFTDYVDKYENIKAHLKLTSYIDKSKVPNNNTKLDVEYKTALSSVNKTITVEYQKPNENRTANLQSMFTNIDTKNHTVEQTIYINPLRYSAKETNVNISGNGDEGSTIIDDSTIIKVYKVGDNQNLPDSNRIYDYSEYEDVTNDDYAQLGNNNDVNINFGNIDSPYIIKVISKYDPNKDDYTTIQQTVTMQTTINEYTGEFRTASYDNTIAFSTSSGQGQGDLPPEK	soluble
GPGSMFQRSLWRFFAHLVREVDTAGFAGDFRRLHHVGAASTQTQAREARHAACNVLFCGHHGTGKLNLLKAIGLQCEKKGQRVAFVSADNQRAARLDGYLINFFIGMRVSRDELPSQEQLEGTLERHVRLVESTFASSFPSLRNIDVLILDALELVQPTVLLSMDAVARRLRGQPRTPFGGLRVYAAADFWRLPVHPTSDTGGYLFQLEQWEVLFPLQTLLRKSHVQKEEELRRLTELAFYGALTLPQMKELEKLSMKEKPESRLFSWSSSTMEAEKSTATATEGEDEEGEIEEEDAMSIAQWTSFPGESAAADLPDGPEGALEATKDDEGAVNDPAAGQTSLSSSSSALALLNDDMASNSFVATRMMLRFPRQPAVKEMPLRYRQLKRTEMGNFLVNMLVHSSSATSVGLVDSLSVDVGSRVHLLLDGQEHYGVPGGAVGEVMQVGPHFLSIHFPREHRTVDIPRMRVVCYHPFYPEIRYELQQFPVFPRKRICPMNILTYPHAFFVNLNGRRMADTNDLGNLLAHQRSFADFTTRNTSDFANLDGMVHEPTRIYYHKISGKPISTAREQWCRNCKQFVPTDSFFEHWATCVHSVRWCIDCNQTVSLELLGPHREKHQVVLCLDCGRPVEWRHWEGHRLSCGPMMREVSTDNQFIPLRTRQLALEMGLDKRDLHTVASITKSSLPKPREGVL	not soluble
MKSSPKSLKMRDNLLDGTFVVIDLEATGFDVEKSEVIDLAAVRVEGGIITEKFSTLVYPGYFIPERIKKLTGITNAMLVGQPTIEEVLPEFLEFVGDNIVVGHFVEQDIKFINKYTKQYRGKKFRNPSLCTLKLARKVFPGLKKYSLKEIAENFGFETNGVHRALKDATLTAEIFIKILEELWFKYGIGDYYSLKRLEKGKF	soluble
